According to the DeepSol protein solubility set:

Assay: soluble on expression in E. coli; label from the status in PepcDB or PDB records

Sequence	soluble on expression in E. coli
MNEKVFRDPVHNYIHIDNPLIYDLINTKEFQRLRRIKQVPTTAFTFHGAEHSRFSHCLGVYEIARRVTAIFEEKYADIWNKDESLVTMTAALLHDIGHGAYSHTFEVLFHTDHEAFTQEIITNPETEINAILVRHAPDFPDKVASVINHTYPNKQVVQLISSQIDCDRMDYLLRDSYFSAANYGQFDLMRILRVIRPVEDGIVFEHSGMHAVEDYIVSRFQMYMQVYFHPASRAVELILQNLLKRAQHLYPEQQAYFQKTAPGLIPFFEKKANLADYIALDDGVMNTYFQVWMASEDHILSDLASRFINRKILKSVTFDQDSQGELERLRQLVESVGFDPDYYTGIHINFDLPYDIYRPELENPRTQIEMMQKDGSLAELSQLSPIVKALTGTTYGDRRFYFPKEMLELDDLFAPSKETFMSYISNGHFHFSQ	not soluble
TRINLTLVSELADQHLMAEYRQLPRVFGAVRKHVANGKRVRDFKISPTFILGAGHVTFFYDKLEFLRKRQIELIAECLKRGFNIKDTTVQDISDIPQEFRGDYIPHEASIAISQARLDEKIAQRPTWYKYYGKAIYA	soluble
MNFHFTLDNDRKRRRSLSIDIDINFNDKAPGTSSDNEQRAPKRRADEEAVNAVPKNLLTTSSTFARAVIPAAPAISSANNKMAPQSVTATAKTTTNRGKVSGEGEYQLIKNEVLCSPYGNQYEVLEFLGKGTFGQVVKAWKKGTSEIVAIKILKKHPSYARQGQIEVSILSRLSNENSEEFNFVRAFECFNHKSHTCLVFEMLEQNLYDFLKQNKFMPLPLNAIRPILFQVLTALLKLKSLGLIHADLKPENIMLVDPQQQPYRVKVIDFGSASHRSKAVTNTYLQSRYYRAPEIILGLPFNESIDMWSLGCVIAELFLGWPLYPGSSEYDQIRFIIQTQGLPPTSMLESASKLHRFFKEVKSESPNHTNVGGSYYRLKTVEEYEASSSTAKSKETRKYIFNVIDDISRVCYGFESDPVEHLCDRIDRQEFVDVLKKMLVLNPDFRITPAEGLESKFVTMTHINGYNFANYVHEAHKRMEICRKPGPAMATPYRAANVATPITPVEKPPAPKLQQPMIAVLPQLNQIAATNIPPVPTQPDLTNLMHHYSQMAAATGSAATAAQFFYQPLPPAPLFQYAQLHHPFAARPPHFLSLATPSHMVPQFVPVPIMDPSMLQGQWPPGAAQQFAVLANDIMRVPAPQGINQMFASTPQTFSLPQFLSSSIPSATTAFNGNAPNIPFPEENSSWALGTAAQQQQQQAQRAQSMINGNVKVKPLAAQPKKNSPAPSVITLSSDEDSNGAGSSNSGSTTRTGAVNPVRNDTLPMGNTIKTEDILVPPTTFDGQLPNLQYFPGSHLFDPKTVAGLLPNPFLDTSHIPRAFN	not soluble
GLETSSKKYSLGKTLGTGSFGIVCEVFDIESGKRFALKKVLQDPRYKNRELDIMKVLDHVNIIKLVDYFYTTGDEEPKPPQPPDDHNKLGGKNNGVNNHHKSVIVNPSQNKYLNVIMEYVPDTLHKVLKSFIRSGRSIPMNLISIYIYQLFRAVGFIHSLGICHRDIKPQNLLVNSKDNTLKLCDFGSAKKLIPSEPSVAYICSRFYRAPELMLGATEYTPSIDLWSIGCVFGELILGKPLFSGETSIDQLVRIIQIMGTPTKEQMIRMNPHYTEVRFPTLKAKDWRKILPEGTPSLAIDLLEQILRYEPDLRINPYEAMAHPFFDHLRNSYESEVKNNSNFPHGVNQNIPQLFNFSPYELSIIPGNVLNRILPKNFSPNYKH	soluble
MGSDKIHHHHHHKPGREFYASDIRESMEKGDKLAILMVHFGSAYPEARTQVLDVMNKRVKEAFPDVEVRQAYSARSVVSRLRAQGVWVQLPADALVELRDQGFTHVIIQPTIIIEGVEMEAIRKEAEQRKGLFKDLRVGNPLLYDDADYEAVMKAVSSPSGVTKNGAKLLVAHGTYHASNSAYAKLGYMFQTKGMKDYYTGTREGFPTIENVGEQMRQAGHKRVQLIPFMFVLIRGTENTVTDFWQKGLRQQGFDVDIYLKPLGENPAIRSLFIDHIRFAMKYKRATIFDRKKLYTH	not soluble
MSEVKVITGTSAAAEAAKLADVDVIAAYPITPQTTCVEKLADFVANGELNAEYIKVESEHSAMSASIAASATGARTFTATSSQGLALMHEVLFAAAGMRVPVVMMNANRALSAPINIWNDQQDSLSQRDTGWIQLYAEDNQEVLDLVIQAFKIAEDEKVLLPVMVNLDGFILTHTVEPVTLPKQESVLDFIGSYEPKHAYLDPKKPMTQGSLGDPNYYMETRYAIETAMRNAEKVIADVHDAFAEKFNRAYGNGLIESYNLEKAENVIVAMGSICGTIKDMIDLKKKEGVEIGLLKIRCYRPLPVEMIKDALKNAKNVAILDKSISLGMNKGAIYADVASFLKDKKTVNYIVGLGGRDITPEDILGIYVDVETSEDGKTNWVGLKEE	not soluble
MNPVAFIREKREGKKHRREDLEAFLLGYLRDEVPDYQVSAWLMAAFLRGLDPEETLWLTETMARSGKVLDLSGLPHPVDKHSSGGVGDKVSLVVGPILAASGCTFAKMSGRGLAHTGGTIDKLESVPGWRGEMTEAEFLERARRVGLVIAAQSPDLAPLDGKLYALRDVTATVESVPLIASSIMSKKLAAGARSIVLDVKVGRGAFMKTLEEARLLAKTMVAIGQGAGRRVRALLTSMEAPLGRAVGNAIEVREAIEALKGEGPGDLLEVALALAEEALRLEGLDPALARKALEGGAALEKFRAFLEAQGGDPRAVEDFSLLPLAEEHPLRAEREGVVREVDAYKVGLAVLALGGGRKRKGEPIDHGVGVYLLKKPGDRVERGEALALVYHRRRGLEEALGHLREAYALGEEAHPAPLVLEAI	soluble
MVINIRRSRPDEGDKLTAIWCRSVDATHDFLTKAYRKELEEMVRAFLPEAPLWVAVSTEDQPIAFMLLTGDHMDALFVDPDVRGCGVGKLLIEHALSLTPKLTTNVNEQNEQAVGFYQKMGFRVTGRSETDDLGQPYPLLNLMYEQQAEADYD	not soluble
SAAVALRDSAQGTVTFEDVAVNFSQEEWSLLSEAQRCLYHDVMLENLTLISSLGCWYGAKDETPSKQTLSIQQESPLRTHWTGVCTKKVHLWGMCGPLLGDILHQGTQHNQKLNGFGAYEKKLDDDANHHQDQKQHIGEKSYRSNAKENE	soluble
MKKIALAVLSLGLLVSGCSAGADKDEKVAEKSGKAKEQSVVPKYAISDEYYKTTIPFDGGNARGLVVQGLNSRLDIDEFETGLMRIAKESFSTKDNFLKGGKALDTQTIQMLVKRKRTDAEQKELEDKLKKDAVKFPNIGLNPALGTGSESLEVKNKKNPIYISNILEHDYYVKKGDNGEERVGMVVGLAMNSVQYFNEEHGYPREAAIPDEKMLAEGKKMAQEILKVIHQKEPETKNIPITFAIYRQAPKSSLVPGNFVSYANVEKGSETVEDWQQINEKYYLFPSEQAKTDNKREDLARVSNFKAKLSDYFQGDYTAVIGTGMYRDDELREMKLDIPVQFNGKAEIVGFTQYVAGLVMEYFPNYMKVQVTIKSVERPEAIIIREAKQDEPLVKILD	not soluble
MNTDFQNILKQLGKQAQKEAAEKQAAEKNKQKQEQDFDFSQAVGQLSPLKNRQQYYAPPDKTPIKVRPKDNRADEENYFYIGSTYNDPPASFSKNGQGKNDIQRLKNGYYPVVTDVDLHGYTQEEAQKVLNEFIAFTQKRGVCGEIIHGSGLGSKGYKPVLKNMTRNWLMQHPDVLAYAEPREGNDGCVRILLKRKLRQQD	not soluble
AQEPVKGPVSTKPGSCPIILIRCAMLNPPNRCLKDTDCPGIKKCCEGSCGMACFVPQ	soluble
MGSDKIHHHHHHMMFGYIKPLKCELKVKEYEEFRGYYCGVCKALKKYSIIPRFLLTYEAASLGLLLSSLNNSDLKRKKELCIFTLKKVDFYSSSEIDEVARVFTALLREKLKDNYIDRKNPVYLFASAFLKKDPEISSLFENFYEMEKKEQDFKILAEEQGKIVGTILSKMVKEETQRKILYYLGLSLGKWLYIVDALDDFEKDKRKNVFNPLVKKYNGDLEKARSELRPHLKKCIDEMWKAYDLLDIKRNKTILDNIVYLGIPFITENVLVGKTCNLNHSTIL	not soluble
MGSDKIHHHHHHMVQSLKVILWGEEIGRLAWDARRRLSYFMYNPAFLKKGLNISPLAAPVDGARGLMPVWGEEAKIYQKLPAFLADSLPDSWGNQLFELWRQQNHLSNADITPLDKLSFIGKRGMGALEFLPEVSRERKAEKIDIKSLANLAERIFSERENARILPEESVTMQSLLTVGTSAGGRQPKAIVAINLKNGEVRSGQISGLEEFDYYLVKFGNSQYSSAELEMSYYELATMAGINMMPSKLYQVDGNNHFMTKRFDRNHGKKIHTQTLAAISPDADSYEQLITVCRKLHLPETDCYEVFRRMVFNVLANNTDDHNKNFSFVMSEDGTWRLSPAYDVTYIFDNGGFLPNEDHCMYIRAKLRNITREDVIQFAKDNGIRRPDAIIRDIVNAMKQFRTVATKYGVAEQWVGRVENTIVDRLKSWRELEEMAPEICELVINGHIIKNIRIEQAYKGNFHLLAEIDGHERKFIIGKNKEEFSLIESMGIANLSSNQLKDMVEKYFIHLKV	not soluble
MAKVPDLFEDLKNCYSENEDYSSAIDHLSLNQKSFYDASYGSLHETCTDQFVSLRTSETSKMSNFTFKESRVTVSATSSNGKILKKRRLSFSETFTEDDLQSITHDLEETIQPRSAPYTYQSDLRYKLMKLVRQKFVMNDSLNQTIYQDVDKHYLSTTWLNDLQQEVKFDMYAYSSGGDDSKYPVTLKISDSQLFVSAQGEDQPVLLKELPETPKLITGSETDLIFFWKSINSKNYFTSAAYPELFIATKEQSRVHLARGLPSMTDFQIS	soluble
MFKRIGLISIALSLNTISFTSEACSALVFNKNKPATVAVNLDWKYREGAFVIHPRNAMMVSSVDYHSMHPLIWKSQYGSVIFHGGNRFKAGPSADGMNEKGLTASILMLDSSIYPSNSELPALKTTEWVQYILDNFQTVQEVIDDSSNYQLVADTYRGITMNVHLMVSDAEGKSAVFEYLDGKLVIHTQDNLTTPVLTNTDYKLSLALLEEYQDHGGSKALPGGYDSKSRFVRAAHYLKKLPSFIAKEEHIAYAFNGLNVVTQAPGTSSPTQLSMVFDIPTKTIYFRSINEAALRVIPMDSIDFDYLYQPIALNVYQHLSGDVTDKFQPMIG	not soluble
QLTAAQELMIQQLVAAQLQCNKRSFSDQPKVTPWPLGADPQSRDARQQRFAHFTELAIISVQEIVDFAKQVPGFLQLGREDQIALLKASTIEIMLLETARRYNHETECITFLKDFTYSKDDFHRAGLQVEFINPIFEFSRAMRRLGLDDAEYALLIAINIFSADRPNVQEPGRVEALQQPYVEALLSYTRIKRPQDQLRFPRMLMKLVSLRTLSSVHSEQVFALRLQDKKLPPLLSEIWDVHE	not soluble
MKRYTPDFPEMMRLCEMNFSQLRRLLPRNDAPGETVSYQVANAQYRLTIVESTRYTTLVTIEQTAPAISYWSLPSMTVRLYHDAMVAEVCSSQQIFRFKARYDYPNKKLHQRDEKHQINQFLADWLRYCLAHGAMAIPVY	not soluble
EERFGHLLHKVEWVSLGGGIHFTGEDYAVDAFCARLKAFSEKYGVQVYLEPGEAAITNSASLEVTVLDTLYNGKHLAVVDSSIEAHLLDLLIYRLNAKMAPNDGEHTYMVCGKSCLAGDIFGEYQFDRPLAIGDRLSFIDTAGYTMVKKNWFNGLKMPSIVVKQLDGSVEVVREFGFEDYVSSLS	not soluble
AGNTSYFLRRKIFRKIMHITAPSHDQYGSSTLLVRLTNDVYLMEIMTFDFL	not soluble
GMNLDSYERTGLRVSLDLVNIATPGSRRGTPHTGGCVIEDLHDLLKDDPASVAQLGDDHVEGFVELARLLHTAIDALSNGQVATAATALNHLLRKHPATPELAQDPDGTWRLHHHPLDAELVPMWTAICAEGLAREIGHQNVRRFGICNAHRCDRVYFDTSRNGTRQYCSLACQNRVKAAAFRERRAT	soluble
